Results published in publication PMC4242106 (Science translational medicine, 2010).

Format: in vivo, human
Details: mean of the five repeat experiments; subcutaneous; controller PK setting SLOW

Insulin lispro
Inferred lispro PK t95%, Mean: 8.9 h | Inferred lispro PK tmax, Mean: 1.48 h
